Test results reported in PMC5531659, “Small molecule perturbation of the CAND1-Cullin1-ubiquitin cycle stabilizes p53 and triggers Epstein-Barr virus reactivation” (PLoS Pathogens, 2017).

Target: T1, Cullin 1 (human (endogenous in Mutu I and 293T), UniProt Q13616 1-776)
T1 construct: Cullin 1, human, endogenous protein of Mutu I and 293T cells; Neddylated and deneddylated forms are seen on blots; also called Cul1; Cul 1; source: endogenous, Mutu I lysate; endogenous, 293T lysate
Assay: co-IP; Mutu I total cell lysates (cells treated with DMSO or C60 for 48 hrs); IP with antibody to Cullin 1, CAND1 or IgG on protein A beads in SDS-free lysis buffer (50 mM Tris-HCl pH 7.6, 120 mM NaCl, 0.1% NP40, 1 mM EDTA), overnight 4°C; Western blot for Cullin 1 or CAND1
Conditions: partners not purified

T1 sequence (Q13616 whole entry): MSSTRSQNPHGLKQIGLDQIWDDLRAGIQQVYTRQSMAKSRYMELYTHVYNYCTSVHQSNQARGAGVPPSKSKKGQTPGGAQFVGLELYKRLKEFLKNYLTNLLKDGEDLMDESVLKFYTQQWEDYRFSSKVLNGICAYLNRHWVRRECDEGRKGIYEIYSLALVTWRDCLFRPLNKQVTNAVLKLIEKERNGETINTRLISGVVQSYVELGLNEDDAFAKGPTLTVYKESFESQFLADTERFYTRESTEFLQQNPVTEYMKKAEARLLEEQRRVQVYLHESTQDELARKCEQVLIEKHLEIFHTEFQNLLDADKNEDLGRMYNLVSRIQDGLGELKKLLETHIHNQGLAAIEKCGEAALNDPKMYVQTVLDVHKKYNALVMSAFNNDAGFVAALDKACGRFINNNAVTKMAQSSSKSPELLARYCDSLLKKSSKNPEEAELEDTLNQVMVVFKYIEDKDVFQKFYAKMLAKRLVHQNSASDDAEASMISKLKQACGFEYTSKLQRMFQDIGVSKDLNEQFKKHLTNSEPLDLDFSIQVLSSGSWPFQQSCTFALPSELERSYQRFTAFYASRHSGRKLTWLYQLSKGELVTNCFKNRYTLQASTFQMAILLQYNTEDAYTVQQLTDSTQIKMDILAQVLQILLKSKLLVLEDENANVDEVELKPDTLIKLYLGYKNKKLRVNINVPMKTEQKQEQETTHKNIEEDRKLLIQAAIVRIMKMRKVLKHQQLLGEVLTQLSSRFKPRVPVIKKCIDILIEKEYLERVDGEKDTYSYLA

fold decrease of the association in C60-treated against DMSO-treated cells: ~5 fold
B1: Cullin-associated and neddylation-dissociated 1 (CAND1) (natural protein, human (endogenous in Mutu I and 293T), UniProt Q86VP6 1-1230, looked up)
chain: MASASYHISNLLEKMTSSDKDFRFMATNDLMTELQKDSIKLDDDSERKVVKMILKLLEDKNGEVQNLAVKCLGPLVSKVKEYQVETIVDTLCTNMLSDKEQLRDISSIGLKTVIGELPPASSGSALAANVCKKITGRLTSAIAKQEDVSVQLEALDIMADMLSRQGGLLVNFHPSILTCLLPQLTSPRLAVRKRTIIALGHLVMSCGNIVFVDLIEHLLSELSKNDSMSTTRTYIQCIAAISRQAGHRIGEYLEKIIPLVVKFCNVDDDELREYCIQAFESFVRRCPKEVYPHVSTIINICLKYLTYDPNYNYDDEDEDENAMDADGGDDDDQGSDDEYSDDDDMSWKVRRAAAKCLDAVVSTRHEMLPEFYKTVSPALISRFKEREENVKADVFHAYLSLLKQTRPVQSWLCDPDAMEQGETPLTMLQSQVPNIVKALHKQMKEKSVKTRQCCFNMLTELVNVLPGALTQHIPVLVPGIIFSLNDKSSSSNLKIDALSCLYVILCNHSPQVFHPHVQALVPPVVACVGDPFYKITSEALLVTQQLVKVIRPLDQPSSFDATPYIKDLFTCTIKRLKAADIDQEVKERAISCMGQIICNLGDNLGSDLPNTLQIFLERLKNEITRLTTVKALTLIAGSPLKIDLRPVLGEGVPILASFLRKNQRALKLGTLSALDILIKNYSDSLTAAMIDAVLDELPPLISESDMHVSQMAISFLTTLAKVYPSSLSKISGSILNELIGLVRSPLLQGGALSAMLDFFQALVVTGTNNLGYMDLLRMLTGPVYSQSTALTHKQSYYSIAKCVAALTRACPKEGPAVVGQFIQDVKNSRSTDSIRLLALLSLGEVGHHIDLSGQLELKSVILEAFSSPSEEVKSAASYALGSISVGNLPEYLPFVLQEITSQPKRQYLLLHSLKEIISSASVVGLKPYVENIWALLLKHCECAEEGTRNVVAECLGKLTLIDPETLLPRLKGYLISGSSYARSSVVTAVKFTISDHPQPIDPLLKNCIGDFLKTLEDPDLNVRRVALVTFNSAAHNKPSLIRDLLDTVLPHLYNETKVRKELIREVEMGPFKHTVDDGLDIRKAAFECMYTLLDSCLDRLDIFEFLNHVEDGLKDHYDIKMLTFLMLVRLSTLCPSAVLQRLDRLVEPLRATCTTKVKANSVKQEFEKQDELKRSAMRAVAALLTIPEAEKSPLMSEFQSQISSNPELAAIFESIQKDSSSTNLESMDTS
notes: CAND1, human, endogenous protein of Mutu I and 293T cells; also called TIP120A; source: endogenous, Mutu I lysate; endogenous, 293T lysate
